Like-named read-outs stand apart in the source and are kept apart here.

The term EC50 denotes the concentration that produces a half-maximal response. Low readings indicate greater potency, high ones weaker potency. Usually Kd stands for the free concentration of one partner at which half of the binding sites on the other are occupied at equilibrium, for simple one-to-one binding. Low readings indicate tighter binding, high ones weaker binding. One may read the koff as the rate constant with which the complex falls apart. A low value points to a long-lived complex. A word on the kon: it is the second-order rate constant of association. Broadly, the IC50 is the concentration at which inhibition is half-maximal. A lower IC50 goes with higher potency.

The target of test [1] is T1, human TIGIT expressed on CHO-K1 cells (human, UniProt Q495A1 22-244).
T1 construct: whole, on cells; also called human TIGIT-CHO-K1 cells; human TIGIT over-expressing cell line
T1 sequence (looked up): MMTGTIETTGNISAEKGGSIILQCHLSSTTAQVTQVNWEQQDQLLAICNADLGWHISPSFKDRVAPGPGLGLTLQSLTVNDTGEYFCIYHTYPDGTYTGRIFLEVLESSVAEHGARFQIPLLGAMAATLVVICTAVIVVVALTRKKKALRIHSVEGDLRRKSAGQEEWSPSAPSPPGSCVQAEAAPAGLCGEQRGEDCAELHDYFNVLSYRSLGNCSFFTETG
In words: flow cytometry on CHO-K1 cells expressing human TIGIT.

Test [2] has as its target T2, His-tagged human TIGIT (human, UniProt Q495A1 22-141).
T2 construct: SPR analyte; also called human TIGIT protein; not shown: His tag
T2 sequence: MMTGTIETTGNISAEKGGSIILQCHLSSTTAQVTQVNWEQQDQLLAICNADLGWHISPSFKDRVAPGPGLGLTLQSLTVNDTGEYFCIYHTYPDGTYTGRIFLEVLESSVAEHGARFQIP
In words: SPR (Biacore T200), antibody captured, His-tagged TIGIT analyte. A general note: In SPR one partner is held on a chip, and binding of the other changes the refractive index at the surface.

Test [3] deals with T3, His-tagged cynomolgus TIGIT (cynomolgus, UniProt A0A7N9I9V4 89-209).
T3 construct: SPR analyte; also called cynomolgus TIGIT protein; not shown: His tag
The test is described as above.

In test [4] the target is T4, cynomolgus TIGIT expressed on CHO-K1 cells (cynomolgus, UniProt A0A7N9I9V4 89-312).
T4 construct: whole, on cells; also called cynomolgus TIGIT over-expressing cell line
As to the kind of experiment: flow cytometry on CHO-K1 cells expressing cynomolgus TIGIT. In general terms: Flow cytometry measures light scatter and fluorescence of single cells or particles in a stream.

Test [5] concerns the target T2, His-tagged human TIGIT. In words: SPR (Biacore T200), antibody captured, His-tagged TIGIT analyte. This is another data set of the same source.
The target of test [6] is T3, His-tagged cynomolgus TIGIT. Described as above. The source holds these as a separate data set.
In test [7] the target is T5, TIGIT on TIGIT-over expressing NFAT-Luc/Jurkat effector cells (GenScript reporter cell line) (UniProt Q495A1 22-244, limits assumed).
T5 sequence (looked up): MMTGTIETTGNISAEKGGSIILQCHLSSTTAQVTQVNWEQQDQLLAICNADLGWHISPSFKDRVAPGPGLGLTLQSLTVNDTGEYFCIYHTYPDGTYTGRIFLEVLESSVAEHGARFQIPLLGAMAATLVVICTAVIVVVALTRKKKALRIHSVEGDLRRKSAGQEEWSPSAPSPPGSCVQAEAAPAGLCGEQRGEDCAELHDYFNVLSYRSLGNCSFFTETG
In words: cell-based or functional assay.

Test [8] has as its target T1, human TIGIT expressed on CHO-K1 cells. In words: flow cytometry on CHO-K1 cells expressing human TIGIT. This is another data set of the same source.
Test [9] concerns the target T2, His-tagged human TIGIT. As to the kind of experiment: SPR experiment 1, IgG from HEK293 supernatant captured.
In test [10] the target is T5, TIGIT on TIGIT-over expressing …. In words: cell-based or functional assay. The source holds these as a separate data set.
The target of test [11] is T1, human TIGIT expressed on CHO-K1 cells. In words: flow cytometry competition: biotinylated CD155-Fc on human TIGIT-CHO-K1 cells.
For test [12], the target named is T4, cynomolgus TIGIT expressed on CHO-K1 …. In words: flow cytometry on CHO-K1 cells expressing cynomolgus TIGIT. The source holds these as a separate data set.
Test [13] concerns the target T1, human TIGIT expressed on CHO-K1 cells. In words: flow cytometry competition: biotinylated CD155-Fc on human TIGIT-CHO-K1 cells. The source holds these as a separate data set.
Test [14] addresses T2, His-tagged human TIGIT. As to the kind of experiment: SPR experiment 2, IgG from HEK293 supernatant captured.
Test [15] concerns the target T2, His-tagged human TIGIT. As to the kind of experiment: SPR experiment 4, IgG from HEK293 supernatant captured.

T4 sequence (A0A7N9I9V4 entry or part of it): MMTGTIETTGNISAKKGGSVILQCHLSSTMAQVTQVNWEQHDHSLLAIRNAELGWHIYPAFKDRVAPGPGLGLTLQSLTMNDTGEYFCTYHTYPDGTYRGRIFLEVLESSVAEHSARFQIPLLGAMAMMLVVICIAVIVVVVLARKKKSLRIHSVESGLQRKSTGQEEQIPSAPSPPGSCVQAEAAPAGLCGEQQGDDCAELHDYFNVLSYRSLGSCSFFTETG
T3 sequence (A0A7N9I9V4 entry or part of it): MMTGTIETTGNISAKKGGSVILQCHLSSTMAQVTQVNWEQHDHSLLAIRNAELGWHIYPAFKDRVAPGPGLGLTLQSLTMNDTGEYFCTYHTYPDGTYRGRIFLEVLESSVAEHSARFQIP

B1: TIGIT-6 chimeric antibody (antibody, human IgG1, kappa, V domains shown)
VH: QVQLKQSGPELVKPGASVKISCKTSGYTITENTMHWVKQSHGKSLEWIGGINPNNGGTSYNQQFKGKATLTVDKSSSTAYMELRSLTSEDSAVYYCTRSSYYRYDLDYWGQGTTVTVSS
VL: DIQMTQSHKFMSTSVGDRVSITCKASQDVKTALAWYQQKPGQSPKLLIYSASYRYTGVPDRFTGSGSGTDFTFTISSVQAEDLAVYYCHQHYTTPWTFGGGTKLEIKR
notes: also called 6VH + 6VL
B1: the EC50 in [1] came out at 0.42 nM; in [4], 2.64 nM; in [7], 9.42 nM; in test [8], 0.581 nM; in test [10], 4.9 nM; in test [12], 2.31 nM. Also, the Kd in the test with His-tagged human TIGIT [2] came out at 0.24 nM; in test [3] it was 54 nM; with His-tagged human TIGIT [5], 0.17 nM; in test [6], 39 nM; with His-tagged human TIGIT [9], 0.094 nM; with His-tagged human TIGIT [14] it was 0.29 nM. The koff with His-tagged human TIGIT [2] stood at 0.00013 s⁻¹; in test [3], 0.0049 s⁻¹; in the test with His-tagged human TIGIT [5] it was 9e-05 s⁻¹; in test [6], 0.0046 s⁻¹; with His-tagged human TIGIT [9] it was 5.3e-05 s⁻¹; with His-tagged human TIGIT [14] it was 0.00012 s⁻¹. Moreover, the kon worked out at 560000 M⁻¹ s⁻¹ with His-tagged human TIGIT [2]; 90000 M⁻¹ s⁻¹ in test [3]; 520000 M⁻¹ s⁻¹ with His-tagged human TIGIT [5]; 120000 M⁻¹ s⁻¹ in [6]; 560000 M⁻¹ s⁻¹ with His-tagged human TIGIT [9]; 420000 M⁻¹ s⁻¹ in the test with His-tagged human TIGIT [14]. In addition, the “Bottom (RLU)” value in test [7] was 10900 RLU; in [10], 51400 RLU. The results for the “Top (RLU)” value in test [7] and in test [10] were 49800 RLU and 139000 RLU, respectively. The IC50 turned out to be 0.57 nM in [11] and 0.566 nM in test [13].

B2: TIGIT-15 chimeric antibody (antibody, human IgG1, kappa, V domains shown)
VH: DVQLVESGGGLVQPGGSLKLSCAASGFTFSSYGMSWVRQTPDRRLELVATINNNGGSTYYPDSVKGRFTISRDNARNTLYLQMSSLKSEDTAMYYCATRTGTEILGFDFWGQGTTLTVSS
VL: DIVLTQSHKFMSTSLGDRVSITCKASQDVSTAVAWYQQKPGQSPKLLIYWASSRHTGVPDRFTGSRSGPDYTLTISSVQAEDLALYYCQQQYSTPWTFGGGTKLEIKR
notes: Full-length chimeric IgG1 kappa
B2 displayed an EC50 in [1] of 1.03 nM. In the test with His-tagged human TIGIT [2], this molecule returned a Kd of 0.19 nM, a koff of 0.00016 s⁻¹ and a kon of 860000 M⁻¹ s⁻¹. In addition, in test [3], the Kd turned out to be 1.1 nM, the koff is 0.0002 s⁻¹ and the kon was 180000 M⁻¹ s⁻¹. The EC50 in [4] is 3.53 nM. Besides, in [7], the “Bottom (RLU)” value worked out at 7720 RLU, the “EC50” value worked out at 17.4 nM and the “Top (RLU)” value turned out to be 51900 RLU. Besides, the concentration for half-maximal inhibition (IC50) in test [11] is 1.07 nM.

B3: 4.1D3 (anti-TIGIT positive control antibody) (antibody, V domains shown)
VH: QVQLQQSGPGLVKPSQTLSLTCAISGDSVSSNSAAWNWIRQSPSRGLEWLGKTYYRFKWYSDYAVSVKGRITINPDTSKNQFSLQLNSVTPEDTAVFYCTRESTTYDLLAGPFDYWGQGTLVTVSS
VL: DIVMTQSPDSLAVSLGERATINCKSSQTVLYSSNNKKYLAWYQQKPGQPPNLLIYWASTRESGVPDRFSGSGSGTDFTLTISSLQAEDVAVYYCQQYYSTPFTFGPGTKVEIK
Regarding B3, the EC50 in [1] stood at 0.95 nM; in [4] it was 2.77 nM; in test [7], 9.28 nM; in [8], 1.05 nM; in [10], 9.69 nM; in test [12], 2.35 nM. Also, the Kd with His-tagged human TIGIT [2] was determined as 0.065 nM; in [3], 5.4 nM; in the test with His-tagged human TIGIT [5], 0.055 nM; in test [6] it was 3 nM. The koff was determined as 4.3e-05 s⁻¹ with His-tagged human TIGIT [2], 0.0011 s⁻¹ in test [3], 3.5e-05 s⁻¹ in the test with His-tagged human TIGIT [5] and 0.00083 s⁻¹ in test [6]. In addition, the kon came to 660000 M⁻¹ s⁻¹ with His-tagged human TIGIT [2], 200000 M⁻¹ s⁻¹ in test [3], 630000 M⁻¹ s⁻¹ in the test with His-tagged human TIGIT [5] and 270000 M⁻¹ s⁻¹ in test [6]. In addition, the “Bottom (RLU)” value in test [7] came out at 12600 RLU; in [10] it was 55300 RLU. Also, the “Top (RLU)” value in test [7] stood at 44200 RLU; in test [10] it was 142000 RLU. Also, the IC50 in test [11] worked out at 1.4 nM; in [13], 0.95 nM.

B4: huTIGIT-3-1 (antibody, human IgG1, kappa, V domains shown)
VH: EVQLVESGGGLVQPGGSLRLSCAASGFTFSSYGMSWVRQAPGKGLELVATIKSSGGSTNLADSVKGRFTISRDNSKNTLYLQMNSLRAEDTAVYYCVRGYFDYWGQGTTVTVSS
VL: DIQMTQSPSSLSASVGDRVTITCRASQDIKTALAWYQQKPGKSPKLLIYWASTRQSGVPSRFSGSGSGTDFTLTISSLQPEDVATYYCQQYYSTPYTFGGGTKVEIKR
notes: Humanized IgG; also called 3VH3.M4 + 3VL4.M6
In the test with His-tagged human TIGIT [5], B4 yielded a Kd of 0.54 nM, a koff of 0.00031 s⁻¹ and a kon of 570000 M⁻¹ s⁻¹. In test [6], this molecule gave a Kd of 18 nM, a koff of 0.0022 s⁻¹ and a kon of 120000 M⁻¹ s⁻¹. The same molecule had a concentration for a half-maximal effect (EC50) in test [8] of 0.511 nM. Also, in test [10], the “Bottom (RLU)” value was 54400 RLU, the “EC50” value worked out at 4.92 nM and the “Top (RLU)” value is 152000 RLU. Further, the EC50 in test [12] stood at 1.72 nM. This molecule had an IC50 in test [13] of 0.502 nM. In the test with His-tagged human TIGIT [15], binding was characterised by a dissociation constant (Kd) of 0.56 nM, the koff stood at 0.00046 s⁻¹ and the kon stood at 820000 M⁻¹ s⁻¹.

B5: reshaped TIGIT-3 antibody 3VH3.M4 + 3VL5.M6 (antibody, V domains shown)
VH: EVQLVESGGGLVQPGGSLRLSCAASGFTFSSYGMSWVRQAPGKGLELVATIKSSGGSTNLADSVKGRFTISRDNSKNTLYLQMNSLRAEDTAVYYCVRGYFDYWGQGTTVTVSS
VL: DIQMTQSPSSLSASVGDRVTITCRASQDIKTALAWYQQKPGQSPKLLIYWASTRQSGVPSRFSGSGSGTDFTLTISSLQPEDVATYYCQQYYSTPYTFGGGTKVEIK
notes: Full-length IgG, tested as HEK293 supernatant
In the test with His-tagged human TIGIT [15], B5 yielded a Kd of 0.5 nM, a koff of 0.00043 s⁻¹ and a kon of 870000 M⁻¹ s⁻¹.

B6: TIGIT-94 chimeric antibody (antibody, human IgG1, kappa, V domains shown)
VH: EVKLVESGGGLVKPGGSLKLSCAASGFTFSTYTMSWVRQTPEKRLEWVATISSGGTYTHYPDSVKGRFTISRDNAKNTLYLQMSSLKSEDTAMYYCTRWFLSLYAMDYWGQGTSVTVSS
VL: DIVMTQSTSSLSASLGDRVTISCRASQDINNFLNWYQQKPAGTVDLLIYYTSRLHSGVPSRFSGSGSGTDYSLTISNLDQEDIATYFCQQGNTFPYTFGGGTRLEIKR
notes: as for B2
Consider B6, for which, in test [1], a half-maximal response (EC50) required 0.51 nM. Also, in the test with His-tagged human TIGIT [2], the Kd is 1.6 nM, the dissociation rate constant (koff) is 0.0019 s⁻¹ and the kon is 1.2e+06 M⁻¹ s⁻¹. In test [3], this molecule came in with an equilibrium dissociation constant (Kd) of 7.7 nM, an off-rate (koff) of 0.0075 s⁻¹ and a kon of 980000 M⁻¹ s⁻¹. This molecule had an EC50 in test [4] of 0.74 nM. In addition, in test [7], the “Bottom (RLU)” value was determined as 9960 RLU, the “EC50” value was 92.8 nM and the “Top (RLU)” value is 59800 RLU. Besides, in test [11], the IC50 is 0.72 nM.

The record behind these values is patent publication US20260139048A1 (NANJING LEGEND BIOTECH, published 2026).
